This series in a line: protein stability index of a GFP-peptide fusion (GPS, HEK-293T) (PSI 1-6); higher = more stable.
[1] abbreviates: treatment: DMSO, c terminus: a fixed tail appended.
[2] abbreviates: treatment: MLN4924 1 uM, 8 h, c terminus: a fixed tail appended.
Where [3] appears, read: treatment: DMSO, c terminus: native.
Where [4] appears, read: treatment: MLN4924 1 uM, 8 h, c terminus: native.

± gives the standard deviation.
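Also: 24-mer peptide tiles fused after GFP, lentivirally expressed, FACS-sorted into six equal bins by GFP/DsRed ratio, decoded by Illumina sequencing, PSI is the read-weighted mean bin number.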

With SRLVKYPLLLKEILKHTPKEHPDV [NET1], the protein stability index came out at 2.71 ± 0.18 under setting [1] and 2.92 ± 0.32 under setting [2].
On to SRPAVGPPQPGCPAFIIVKLSPLR [ZSWIM9], for which the protein stability index was 2.59 ± 0.19 under setting [1] and 2.33 ± 0.15 under setting [2].
For the sequence SRQGSAEALRALQEGLWLDRGTRV [PKD2L1], the protein stability index under setting [1] stood at 3.6 ± 0.37 and the protein stability index under setting [2] came out at 3.28 ± 0.27.
With SRRIPSTDANLPSGGKGFKLRRQP [RAB22A], the protein stability index by setting is: under setting [1], 4.09 ± 0.18; under setting [2], 4.25 ± 0.23.
Take SRRVLLTNVVTGHRQSFGTNSDVL [DCAF4]: the protein stability index came out at 2.87 ± 0.28 under setting [1] and 3.04 ± 0.26 under setting [2].
On to SRVILEIDNARLAADDFRLKYENE [KRT15], for which the protein stability index worked out at 3.62 ± 0.4 under setting [1] and 3.7 ± 0.15 under setting [2].
For SSDGSNFGWETKIKAWMDRYEEAN [KMT2E] the same measures were 3.79 ± 0.18 and 3.83 ± 0.15.
For SSHMNIDITDDCICDLARSIDFNK [PPEF2], in that order: 3.67 ± 0.35 and 3.89 ± 0.19.
For SSLRRQFEFSVDSFQIVLDPMLDF [TENT5D], in that order: 2.41 ± 0.32 and 2.17 ± 0.25.
On to SSPSVSGPRRLVSCLSSQSSALSQ [SPACA3], for which the protein stability index is 3.4 ± 0.27 under setting [1] and 3.52 ± 0.35 under setting [2].
On to SSRVIAASYDKTVRAWDLETGKLL [WDR88], for which the protein stability index is 2.76 ± 0.39 under setting [1] and 3.04 ± 0.29 under setting [2].
SSSGYSSAEINQDLNIQLLKDGYR [FAM219A] came in with a protein stability index under setting [1] of 3.67 ± 0.15 and a protein stability index under setting [2] of 3.85 ± 0.22.
As to SSSNEHAAPAAKTRKQAAKKVAPL [ELOA2], the protein stability index is, setting by setting: under setting [1], 4.85 ± 0.32; under setting [2], 4.92 ± 0.26.
As for STPFKPLALKTPPRVLTLSERPLD [MFF], the protein stability index is, setting by setting: under setting [1], 4.08 ± 0.17; under setting [2], 4 ± 0.15.
Regarding SVAVPPPPPNRMYPPPPPALPSSA [WASL], the protein stability index runs as follows: under setting [1], 4.5 ± 0.18; under setting [2], 4.53 ± 0.3.
For SVPIIGGFWETIFGNRIKRVKLIS [PHTF1], in that order: 2.29 ± 0.23 and 1.94 ± 0.22.
For SVQVDGQARTQKLQGLIPGARYEV [TNXB] the same measures were 2.6 ± 0.62 and 3.28 ± 0.26.
With SVTRSCLLEEEEESGEEAAEAME [POP5], the protein stability index by setting is: under setting [3], 5.52 ± 0.23; under setting [4], 5.49 ± 0.12.
For the sequence SWGWDLGRNRLYHDGKNQPSKTYP [SPSB1], the protein stability index reads like this: under setting [1], 3.65 ± 0.094; under setting [2], 3.53 ± 0.34.
Take SWIKMTKLEYEEIALDLTPVIEEL [FAN1]: the protein stability index by setting is: under setting [1], 2.83 ± 0.69; under setting [2], 2.7 ± 0.53.
SYLMLVTVMMWPLAVYHRLWDRAY [RETREG3]: the protein stability index was 3.62 ± 0.18 under setting [1] and 2.62 ± 0.6 under setting [2].
As for SYYDPGRLICDFPFDGLLEERALL [VPS39], the protein stability index reads like this: under setting [1], 2.4 ± 0.34; under setting [2], 2.68 ± 0.29.
As to TAGDRLTEFRKGAQSLPGPCAAAR [IRX6], the protein stability index is, setting by setting: under setting [1], 4.01 ± 0.18; under setting [2], 4.17 ± 0.58.
Turning to TALVGLRQNLSKSWLDVQVSNTYV [TPD52L3], the protein stability index is, setting by setting: under setting [1], 2.39 ± 0.96; under setting [2], 2.19 ± 0.53.
TCECLEGFRLAEDGKRCRRKDVCK [MATN2] came in with a protein stability index under setting [1] of 4.24 ± 0.25 and a protein stability index under setting [2] of 4.83 ± 0.28.
For TCSFNPGVIVANMTEWKHQRITKQ [GLT8D2], in that order: 3.12 ± 0.11 and 3.06 ± 0.15.
For TCTDRSGISTGHWSGEVKDKNVQV [FUT8], in that order: 4.51 ± 0.21 and 4.49 ± 0.16.
As for TDATAFWWGEWTKWTACSRSCGGG [ADAMTSL2], the protein stability index runs as follows: under setting [1], 2.24 ± 0.68; under setting [2], 2.59 ± 0.6.
Consider TDGLQEVPLCSCRMETPKSREITT [EHMT1], for which the protein stability index reads like this: under setting [1], 3.21 ± 0.25; under setting [2], 3.07 ± 0.26.
As for TDGRPQDSVAEVAAKARDTGILIF [MATN2], the protein stability index is, setting by setting: under setting [1], 2.86 ± 0.23; under setting [2], 3.12 ± 0.34.
Regarding TENRRLESKIREHLEKKGPQVRDW [KRT18], the protein stability index is 3.92 ± 0.16 under setting [1] and 3.95 ± 0.33 under setting [2].
Regarding TERGLSRKHIIEGLKASLERLQLE [KCNAB2], the protein stability index by setting is: under setting [1], 2.5 ± 0.32; under setting [2], 2.22 ± 0.19.
For the sequence TESEIESETDFETEPETAPTTEPE [GNAS], the protein stability index is, setting by setting: under setting [1], 5.66 ± 0.2; under setting [2], 5.68 ± 0.27.
As for TFLPYTFSLMVTFPDVPLGIFLFC [TMEM175], the protein stability index amounted to 2.49 ± 0.14 under setting [1] and 2.98 ± 0.8 under setting [2].
Sequence TFWKEDKAFWKEDNALWERDRNLL [CCDC70] registered a protein stability index under setting [1] of 2.95 ± 0.12 and a protein stability index under setting [2] of 3.2 ± 0.43.
For TFYVRFFLTYVPLLGLKAFLGLFF [FADS1], the protein stability index was 2.93 ± 0.3 under setting [1] and 3.24 ± 0.29 under setting [2].
For TGERPHQCIECGKSFNRHCNLIRH [ZSCAN9] the same measures were 3.13 ± 0.17 and 3.35 ± 0.38.
For TGNPKSEEPEVPDQEGLQRITGLS [SPNS1] the same measures were 5.35 ± 0.26 and 5.41 ± 0.16.
Take TGQSKIYSYMSPNKCSGMRFPLQE [KMT5A]: the protein stability index is 2.28 ± 0.29 under setting [1] and 2.27 ± 0.11 under setting [2].
For THKKCKEEVVSTLDAVQVLSGVSQ [FCHO1], in that order: 3.77 ± 0.23 and 3.64 ± 0.16.
Consider TIDDTISKFRRKDREDSPERCSDS [CLINT1], for which the protein stability index amounted to 5.5 ± 0.3 under setting [1] and 5.44 ± 0.3 under setting [2].
Turning to TILPQEIQSRVQELHPESGEEAVT [ZNF263], the protein stability index stood at 5.11 ± 0.25 under setting [1] and 5.33 ± 0.28 under setting [2].
For the sequence TKILQERAVLGANDPEKNFLTTAI [NSDHL], the protein stability index under setting [1] worked out at 3.53 ± 0.14 and the protein stability index under setting [2] turned out to be 3.38 ± 0.13.
For TKLQAQHVSYRELGACVRTAVAQG [SLC25A39], in that order: 3.05 ± 0.42 and 3.29 ± 0.32.
On to TKPSFESGRRGPPPPPRSRGPPRG [RBMX], for which the protein stability index reads like this: under setting [1], 4.74 ± 0.33; under setting [2], 4.81 ± 0.29.
With TKPVVILPCQHNLCRKCANDIFQA [TRIM63], the protein stability index reads like this: under setting [1], 2.36 ± 0.26; under setting [2], 2.55 ± 0.27.
For TLDGRTPLHLAAQRGHYRVARILI [RIPK4] the same measures were 1.97 ± 0.44 and 1.92 ± 0.36.
Consider TLGEVPAAESPDPPQSPQGASSLP [MAGEA3], for which the protein stability index reads like this: under setting [1], 5.5 ± 0.22; under setting [2], 5.37 ± 0.1.
Sequence TLGQAWQGYVSDIRRFLSAFHEPQ [DFFB] returned a protein stability index under setting [1] of 2.29 ± 0.18 and a protein stability index under setting [2] of 2.04 ± 0.22.
For TLHPISSEELLSLKYENDYPSVIL [ETS1], in that order: 2.55 ± 0.17 and 2.76 ± 0.23.
Consider TLSFNMSDKYPIQDTELPKAEECD [EDARADD], for which the protein stability index worked out at 4.55 ± 0.39 under setting [1] and 4.36 ± 0.31 under setting [2].
Consider TLVDESDLYNWEVAIFGPPNTLYE [UBE2R2], for which the protein stability index runs as follows: under setting [1], 2.71 ± 0.17; under setting [2], 2.81 ± 0.17.
On to TMGAVVLSSTLLSFSTAIGRTCIT [MFSD9], for which the protein stability index was 2.98 ± 0.48 under setting [1] and 3.22 ± 0.29 under setting [2].
For TNAGFLQTESELQELSEVLELLSA [FAN1] the same measures were 3.04 ± 0.21 and 3.03 ± 0.53.
For TNALTHTVAMSTLNFCGPNVINHF [OR3A1] the same measures were 2.41 ± 0.57 and 2.47 ± 0.27.
For TPQHHEKQYAMQRPNDDSLAFLDK [IQUB], the protein stability index under setting [1] turned out to be 4.53 ± 0.23 and the protein stability index under setting [2] was determined as 4.58 ± 0.17.
Consider TQARQVMEREFNNLLALGTDRKLD [PPFIA4], for which the protein stability index runs as follows: under setting [1], 4.21 ± 0.52; under setting [2], 4.12 ± 0.38.
For TREAHRESSVPVTPSVPPPASQHS [FBF1], in that order: 4.94 ± 0.099 and 5.07 ± 0.12.
For the sequence TSDGYTALHLAARNGHLATVKLLV [RIPK4], the protein stability index by setting is: under setting [1], 2.35 ± 0.57; under setting [2], 2.25 ± 0.33.
As for TSDSEGAHVNTLHSGTKRDPKEDV [PHTF1], the protein stability index runs as follows: under setting [1], 5.51 ± 0.22; under setting [2], 5.54 ± 0.21.
Regarding TSFIRGPNPSKVLQQLLVLQPEQQ [CDS1], the protein stability index was 3.37 ± 0.19 under setting [1] and 3.3 ± 0.095 under setting [2].
Consider TSGNPNGRYGSGYLLASTPESEL [SLC6A17], for which the protein stability index stood at 4.62 ± 0.37 under setting [3] and 4.58 ± 0.2 under setting [4].
For TSKCGSLKNIRHRPGGGRVKIESV [MAP2], the protein stability index is, setting by setting: under setting [1], 3.1 ± 0.21; under setting [2], 3.3 ± 0.44.
For TSPHFSTRHEGSFQVPVLCAVMNV [CD69], in that order: 2.81 ± 0.51 and 2.63 ± 0.59.
In turn, TTFRGHTGGVTALCWDPVQRVLFS [WDFY2] returned a protein stability index under setting [1] of 2.25 ± 0.23 and a protein stability index under setting [2] of 2.26 ± 0.23.
Regarding TVDLELELQIELLRETKRKYESVL [ARFIP2], the protein stability index reads like this: under setting [1], 2.71 ± 0.19; under setting [2], 2.91 ± 0.22.
For TVLLEEETLEASVGPRETEEKVRD [TOR1AIP2] the same measures were 5.59 ± 0.21 and 5.51 ± 0.24.
Take TVTVISPLELMRTKLQAQHVSYRE [SLC25A39]: the protein stability index reads like this: under setting [1], 2.65 ± 0.41; under setting [2], 2.81 ± 0.22.
TYEKLSRAMRYYYKREILERVDGR [ELF3]: the protein stability index is, setting by setting: under setting [1], 2.21 ± 0.4; under setting [2], 2.26 ± 0.37.
For TYLRLIVDHHGTAQLQALRQKEVD [INTS3], the protein stability index runs as follows: under setting [1], 2.27 ± 0.2; under setting [2], 2.35 ± 0.3.
The sequence TYVDKKRDLLGALKHWRRAMELRH [FEM1A] returned a protein stability index under setting [1] of 2.28 ± 0.26 and a protein stability index under setting [2] of 2.31 ± 0.11.
Consider VAMLGVFLVSAVAHEYIFCFVLGF [SOAT2], for which the protein stability index reads like this: under setting [1], 3.21 ± 0.36; under setting [2], 3.14 ± 0.5.
